According to paper PMC3949604 (Biochemical pharmacology, 2014):

Target: baculovirus expressed human Arnt (aryl hydrocarbon receptor nuclear translocator) (human, UniProt P27540 1-789)
Assay: co-IP

baculovirus expressed human Arnt (aryl hydrocarbon receptor nuclear translocator), sequence (P27540 whole entry): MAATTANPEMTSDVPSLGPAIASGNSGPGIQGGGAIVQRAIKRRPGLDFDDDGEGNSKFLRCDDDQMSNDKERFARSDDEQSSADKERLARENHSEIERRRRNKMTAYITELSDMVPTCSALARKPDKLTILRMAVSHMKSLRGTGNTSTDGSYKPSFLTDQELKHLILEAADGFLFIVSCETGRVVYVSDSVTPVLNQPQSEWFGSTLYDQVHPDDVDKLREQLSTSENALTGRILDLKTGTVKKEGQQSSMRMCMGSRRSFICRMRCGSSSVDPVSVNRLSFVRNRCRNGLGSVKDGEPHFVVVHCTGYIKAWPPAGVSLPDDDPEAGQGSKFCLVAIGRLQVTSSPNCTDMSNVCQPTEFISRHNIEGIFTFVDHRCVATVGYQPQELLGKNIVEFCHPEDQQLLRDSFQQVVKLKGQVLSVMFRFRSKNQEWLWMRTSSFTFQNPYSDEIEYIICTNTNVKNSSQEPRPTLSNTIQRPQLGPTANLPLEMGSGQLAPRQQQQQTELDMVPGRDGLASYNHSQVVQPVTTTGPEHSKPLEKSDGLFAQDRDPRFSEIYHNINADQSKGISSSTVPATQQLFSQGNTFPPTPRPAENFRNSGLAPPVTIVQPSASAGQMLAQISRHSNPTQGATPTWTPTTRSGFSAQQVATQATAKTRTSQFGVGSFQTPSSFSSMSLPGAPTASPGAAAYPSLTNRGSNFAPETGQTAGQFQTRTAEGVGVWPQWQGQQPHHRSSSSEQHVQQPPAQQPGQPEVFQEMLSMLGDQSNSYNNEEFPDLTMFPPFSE

B1: thioredoxin fusion of CΔ553 (human AhR aa 1-295) (domain or fragment, UniProt P35869 1-295, looked up)
chain: MNSSSANITYASRKRRKPVQKTVKPIPAEGIKSNPSKRHRDRLNTELDRLASLLPFPQDVINKLDKLSVLRLSVSYLRAKSFFDVALKSSPTERNGGQDNCRAANFREGLNLQEGEFLLQALNGFVLVVTTDALVFYASSTIQDYLGFQQSDVIHQSVYELIHTEDRAEFQRQLHWALNPSQCTESGQGIEEATGLPQTVVCYNPDQIPPENSPLMERCFICRLRCLLDNSSGFLAMNFQGKLKYLHGQKKKGKDGSILPPQLALFAIATPLQPPSILEIRTKNFIFRTKHKLDF
percent of input co-immunoprecipitated: > 10 % input

B2: thioredoxin fusion of D3 (human AhR aa 191-295) (domain or fragment, UniProt P35869 191-295, looked up)
chain: EEATGLPQTVVCYNPDQIPPENSPLMERCFICRLRCLLDNSSGFLAMNFQGKLKYLHGQKKKGKDGSILPPQLALFAIATPLQPPSILEIRTKNFIFRTKHKLDF
percent of input co-immunoprecipitated: ~10 % input

B3: thioredoxin fusion of D2 (human AhR aa 84-192) (domain or fragment)
chain: not shown
percent of input co-immunoprecipitated: ~10 % input

B4: thioredoxin fusion of D1 (human AhR aa 84-295) (domain or fragment, UniProt P35869 84-295, looked up)
chain: DVALKSSPTERNGGQDNCRAANFREGLNLQEGEFLLQALNGFVLVVTTDALVFYASSTIQDYLGFQQSDVIHQSVYELIHTEDRAEFQRQLHWALNPSQCTESGQGIEEATGLPQTVVCYNPDQIPPENSPLMERCFICRLRCLLDNSSGFLAMNFQGKLKYLHGQKKKGKDGSILPPQLALFAIATPLQPPSILEIRTKNFIFRTKHKLDF
percent of input co-immunoprecipitated: ~10 % input
